{
  "source": "patent US12269859B2",
  "about": "“Synthetic immune receptors and methods of use thereof” (Angeles Therapeutics, Inc., priority 2016, dated 2025)",
  "molecules": {"B1": {"name": "092517-H02 (protein)", "chain": "MALPVTALLLPLALLLHAARPLEGKPIPNPLLGLDSTGSGEDLKNVFPPEVAVFEPSKAEIAHTQKATLVCLATGFYPDHVELSWWVNGKEVHSGVCTDPQPLKEQPALNDSRYCLSSRLRVSATFWQNPRNHFRCQVQFYGLSENDEWTQDRAKPVTQIVSAEAWGRADCGITSASYHQGVLSATILYEILLGKATLYAVLVSALVLMAMVKRKDSRGRAKRSGSGATNFSLLKQAGDVEENPGPTSMALPVTALLLPLALLLHAARPDVVMTQSPSSLSASVGDRVTITCKASEDIYIRLAWYQQKPGKAPKLLIYAATSLETGVPSRFSGSGSGTDFTLTISSLQPEDFATYYCQQYWTTPWTFGGGTKVEIKGGGGSGGGGSGGGGSQVQLQESGPGLVKPSQTLSLTCTVSGYSITIDYTWNWIRQPPGKGLEWIGYITYSGSTDYNPSLKSRVLISVDTSKNQVSLKLSSVTAADTAVYYCARLGRRYALDYWGQGTTVTVSSTREQKLISEEDGSGIQNPDPAVYQLRDSKSSDKSVCLFTDFDSQTNVSQSKDSDVYITDKCVLDMRSMDFKSNSAVAWSNKSDFACANAFNNSIIPEDTFFPSSDVPCDVKLVEKSFETDTNLNFQNLSVIGFRILLLKVAGFNLLMTLRLWSSRAKRSGSGVKQTLNFDLLKLAGDVESNPGPSRGHMTEYKPTVRLATRDDVPRAVRTLAAAFADYPATRHTVDPDRHIERVTELQELFLTRVGLDIGKVWVADDGAAVAVWTTPESVEAGAVFAEIGPRMAELSGSRLAAQQQMEGLLAPHRPKEPAWFLATVGVSPDHQGKGLGSAVVLPGVEAAERAGVPAFLETSAPRNLPFYERLGFTVTADVEVPEGPRTWCMTRKPGA"}, "B2": {"name": "092216-B03 (protein)", "chain": "MALPVTALLLPLALLLHAARPLEGKPIPNPLLGLDSTGSGEDLKNVFPPEVAVFEPSKAEIAHTQKATLVCLATGFYPDHVELSWWVNGKEVHSGVCTDPQPLKEQPALNDSRYCLSSRLRVSATFWQNPRNHFRCQVQFYGLSENDEWTQDRAKPVTQIVSAEAWGRADCGITSASYHQGVLSATILYEILLGKATLYAVLVSALVLMAMVKRKDSRGRAKRSGSGATNFSLLKQAGDVEENPGPTSMALPVTALLLPLALLLHAARPDQIVLTQSPAIMSASPGEKVTISCSASSSVSYMYWYQQKPGSSPKPWIYRTSNLASGVPARFSGSGSGTSYSLTISNMEAEDAAAYYCQQYHSYPTTFGGGTKLEVKGGGGSGGGGSGGGGSEVQLVESGGGLVQPKGSLKLSCAASGFSFNTYAMNWVRQAPGKGLEWIAHIRSKSNNFATYYADSVKDRFSISRDASENILFLQMNNLKTEDTAMYYCVRQGGDFPMDYWGQGTSVTVSSTREQKLISEEDGSGIQNPDPAVYQLRDSKSSDKSVCLFTDFDSQTNVSQSKDSDVYITDKCVLDMRSMDFKSNSAVAWSNKSDFACANAFNNSIIPEDTFFPSSDVPCDVKLVEKSFETDTNLNFQNLSVIGFRILLLKVAGFNLLMTLRLWSSRAKRSGSGVKQTLNFDLLKLAGDVESNPGPSRGHMTEYKPTVRLATRDDVPRAVRTLAAAFADYPATRHTVDPDRHIERVTELQELFLTRVGLDIGKVWVADDGAAVAVWTTPESVEAGAVFAEIGPRMAELSGSRLAAQQQMEGLLAPHRPKEPAWFLATVGVSPDHQGKGLGSAVVLPGVEAAERAGVPAFLETSAPRNLPFYERLGFTVTADVEVPEGPRTWCMTRKPGA", "modifications": "Synthetic Immune Receptor (SIR)"}, "B3": {"name": "010417-U02 (protein)", "chain": "MALPVTALLLPLALLLHAARPLEGKPIPNPLLGLDSTGSGEDLKNVFPPEVAVFEPSKAEIAHTQKATLVCLATGFYPDHVELSWWVNGKEVHSGVCTDPQPLKEQPALNDSRYCLSSRLRVSATFWQNPRNHFRCQVQFYGLSENDEWTQDRAKPVTQIVSAEAWGRADCGITSASYHQGVLSATILYEILLGKATLYAVLVSALVLMAMVKRKDSRGRAKRSGSGATNFSLLKQAGDVEENPGPTSMALPVTALLLPLALLLHAARPDQIVLTQSPAIMSASPGEKVTISCSASSSVSYMYWYQQKPGSSPKPWIYRTSNLASGVPARFSGSGSGTSYSLTISNMEAEDAAAYYCQQYHSYPTTFGGGTKLEVKGGGGSGGGGSGGGGSEVQLVESGGGLVQPKGSLKLSCAASGFSFNTYAMNWVRQAPGKGLEWIAHIRSKSNNFATYYADSVKDRFSISRDASENILFLQMNNLKTEDTAMYYCVRQGGDFPMDYWGQGTSVTVSSTREAAAKEIVLTQSPATLSLSPGERATLSCSASSSVSYMHWYQQKPGQAPRLLIYDTSKLASGIPARFSGSGSGTDFTLTISSLEPEDVAVYYCFQGSVYPFTFGQGTKLEIKRGGGGSGGGGSGGGGSQVQLQESGPGLVKPSQTLSLTCTVSGGSISTSGMGVGWIRQHPGKGLEWIGHIWWDDDKRYNPALKSRVTISVDTSKNQFSLKLSSVTAADTAVYYCARMELWSYYFDYWGQGTLVTVSSTREQKLISEEDGSGIQNPDPAVYQLRDSKSSDKSVCLFTDFDSQTNVSQSKDSDVYITDKCVLDMRSMDFKSNSAVAWSNKSDFACANAFNNSIIPEDTFFPSSDVPCDVKLVEKSFETDTNLNFQNLSVIGFRILLLKVAGFNLLMTLRLWSSRAKRSGSGVKQTLNFDLLKLAGDVESNPGPSRGHMTEYKPTVRLATRDDVPRAVRTLAAAFADYPATRHTVDPDRHIERVTELQELFLTRVGLDIGKVWVADDGAAVAVWTTPESVEAGAVFAEIGPRMAELSGSRLAAQQQMEGLLAPHRPKEPAWFLATVGVSPDHQGKGLGSAVVLPGVEAAERAGVPAFLETSAPRNLPFYERLGFTVTADVEVPEGPRTWCMTRKPGA"}, "B4": {"name": "101817-B02 (protein)", "chain": "MALPVTALLLPLALLLHAARPEIVLTQSPATLSLSPGERATLSCSASSSVSYMYWYQQKPGQAPRLLIYRTSNLASGIPARFSGSGSGTDFTLTISSLEPEDFAVYYCQQYHSYPTTFGQGTKVEIKRTVLEIQNPDPAVYQLRDSKSSDKSVCLFTDFDSQTNVSQSKDSDVYITDKCVLDMRSMDFKSNSAVAWSNKSDFACANAFNNSIIPEDTFFPSSDVPCDVKLVEKSFETDTNLNFQNLSVIGFRILLLKVAGFNLLMTLRLWSSRAKRSGSGVKQTLNFDLLKLAGDVESNPGPTSMDWIWRILFLVGAATGAHSFEEVQLVESGGGLVQPGGSLRLSCAASGFSFNTYAMNWVRQAPGKGLEWVSHIRSKSNNFATYYADSVKDRFTISRDNAKNSLYLQMNSLRAEDTAVYYCARQGGDFPMDYWGQGTLVTVSSTREDLKNVFPPEVAVFEPSKAEIAHTQKATLVCLATGFYPDHVELSWWVNGKEVHSGVCTDPQPLKEQPALNDSRYCLSSRLRVSATFWQNPRNHFRCQVQFYGLSENDEWTQDRAKPVTQIVSAEAWGRADCGITSASYHQGVLSATILYEILLGKATLYAVLVSALVLMAMVKRKDSRGRAKRSGSGATNFSLLKQAGDVEENPGPSRGHMTEYKPTVRLATRDDVPRAVRTLAAAFADYPATRHTVDPDRHIERVTELQELFLTRVGLDIGKVWVADDGAAVAVWTTPESVEAGAVFAEIGPRMAELSGSRLAAQQQMEGLLAPHRPKEPAWFLATVGVSPDHQGKGLGSAVVLPGVEAAERAGVPAFLETSAPRNLPFYERLGFTVTADVEVPEGPRTWCMTRKPGA"}, "B5": {"name": "091316-A01 (protein)", "chain": "MALPVTALLLPLALLLHAARPLEGKPIPNPLLGLDSTGSGEDLKNVFPPEVAVFEPSKAEIAHTQKATLVCLATGFYPDHVELSWWVNGKEVHSGVCTDPQPLKEQPALNDSRYCLSSRLRVSATFWQNPRNHFRCQVQFYGLSENDEWTQDRAKPVTQIVSAEAWGRADCGITSASYHQGVLSATILYEILLGKATLYAVLVSALVLMAMVKRKDSRGRAKRSGSGATNFSLLKQAGDVEENPGPTSMALPVTALLLPLALLLHAARPDIVMTQAAPSIPVTPGESVSISCRSDKSLLHSNGNTYLFWFLQRPGQSPQLLIYRMSNLASGVPDRFSGSGSGTAFTLRISGVEAEDVGVYYCMQHLEYPYTFGGGTKLEIKGGGGSGGGGSGGGGSQVQLQQSGPELVKPGASVKMSCKASGYAFSSSWLNWVRQRPGKGLEWIGRIYPGDGENHYNGKFKGKATLTADKSSSTGYMQLSSLTSEDSAVYFCASYYEGGYWGQGTLITVSATREQKLISEEDGSGIQNPDPAVYQLRDSKSSDKSVCLFTDFDSQTNVSQSKDSDVYITDKCVLDMRSMDFKSNSAVAWSNKSDFACANAFNNSIIPEDTFFPSSDVPCDVKLVEKSFETDTNLNFQNLSVIGFRILLLKVAGFNLLMTLRLWSSRAKRSGSGVKQTLNFDLLKLAGDVESNPGPSRGHMTEYKPTVRLATRDDVPRAVRTLAAAFADYPATRHTVDPDRHIERVTELQELFLTRVGLDIGKVWVADDGAAVAVWTTPESVEAGAVFAEIGPRMAELSGSRLAAQQQMEGLLAPHRPKEPAWFLATVGVSPDHQGKGLGSAVVLPGVEAAERAGVPAFLETSAPRNLPFYERLGFTVTADVEVPEGPRTWCMTRKPGA", "modifications": "Synthetic Immune Receptor (SIR)"}},
  "system": "target antigen-expressing cell line",
  "experiment": "Jurkat NFAT-GFP assay, coculture with target cell lines expressing the respective target antigen (summary Table 10A)",
  "assay_type": "cell-based, human",
  "parameters": "key: The signs +/−, +, 2+ etc. after the name of the cell lines indicate the relative degree of positivity on the Jurkat-NFAT-GFP assay as measured by the % GFP positive cells; +: relative degree of positivity on the Jurkat-NFAT-GFP assay as measured by the % GFP positive cells; 2+: relative degree of positivity on the Jurkat-NFAT-GFP assay as measured by the % GFP positive cells",
  "method_in_brief": "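Jurkat cells carrying an NFAT-site IL-2 promoter driving GFP were lentivirally transduced with SIRs, puromycin-selected, then cocultured with antigen-expressing target cells at E:T about 1:2 for about 4–18 hours. GFP induction was read by flow cytometry as % GFP-positive cells versus parental Jurkat-NFAT-GFP.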",
  "data": [
    {"molecule": "B1", "values": [
      {"measurement": "NFAT-GFP ASSAY Positive Cell lines", "setting": "coculture with HEL cells", "value": "HEL(+)"}
    ]},
    {"molecule": "B2", "values": [
      {"measurement": "NFAT-GFP ASSAY Positive Cell lines", "setting": "coculture with HEL cells", "value": "HEL (+)"}
    ]},
    {"molecule": "B3", "values": [
      {"measurement": "NFAT-GFP ASSAY Positive Cell lines", "setting": "coculture with HEL cells", "value": "+/−"},
      {"measurement": "NFAT-GFP ASSAY Positive Cell lines", "setting": "coculture with NALM6 cells", "value": "+"},
      {"measurement": "NFAT-GFP ASSAY Positive Cell lines", "setting": "coculture with RAJI cells", "value": "RAJI (+), NALM6"}
    ]},
    {"molecule": "B4", "values": [
      {"measurement": "NFAT-GFP ASSAY Positive Cell lines", "setting": "coculture with HEL cells", "value": "HEL (+)"}
    ]},
    {"molecule": "B5", "values": [
      {"measurement": "NFAT-GFP ASSAY Positive Cell lines", "setting": "coculture with HEL cells", "value": "HEL (+/−)"}
    ]}
  ]
}
